Reference: a protein production outcome set (Wang et al. 2014)

Assay: label from the status in PepcDB records

Sequence	protein production
MVKKSYVINWARDLANRGVGVNYDGAFGSQCVDLPFWILGKFFGRPISGNAIDLLNSAKAAGYQVIYDAPGVNPRVGDIFVMHSIAYDGKDYGHTGLVIEDSDGHSIKTIEQNVDGNADNLYVGGPARYRTRSFNGIIGWIRPPYENEILENKREETDMRDFFVITNSEYTFAGVHYAKGAVLHVSPTQKRAFWVIADQENFIKQVNKNIEYVEKNASPAFLQRIVEIYQVKFEGKNVH	not failed
MDTEADLFYRQLPKVELHAHLNGSVSFETMEKLIKRKPHLNIEHSMTAIRRGQRRTLDECFQVFKVIHQLVDSEEDILMVAKSVIQEFAADGVKYLELRSTPREVTETGLSKQRYIETVLEAIRQCKQEGVDIDVRFLVAVDRRHGPEVAMQTVKLAEDFLLSSDGTVVGLDLSGDPTVGHGKDLLAALQKAKNCGLKLALHLSEVPSQIDETELLLNLPPDRIGHGTFLHPDVGGSDSLVDKVCKQNIPIEICLTSNVKGQTVPSYDKHHFKYWYNRGHPCVLCTDDKGVFCTDLSQEYQLAASTFGLTKEAVWILSQQAIGYTFAPEPIKQRLEKTWAELKQQILQ	failed
AIAASALEQFVNNVRQLSAQGQMTQLCELINKSGELLAKNLSHLDTVLGALDIQEHSLGVLAVLFVKFSMPNIPDFETLFSQVQLFISTCNGEHIRYATDTFAGLCHQLTNALVERKQPLRGISILKQAIDKMQMNTNQLTSVHADLCQLCLLAKCFKPAVPFLELDMMDICKENGAYDAKHFLCYYYYGGMIYTGLKNFERALYFFEQAITTPAMAVSHIMLEAYKKYILVSLILHGKVQQLPKYTSQIVGRFIKPLSNAYHELAQIYATNNPAELRALVNKHSETFTRDNNSGLVKQCLSSLYKKNIQRLTKTFLTLSLQDMASRVQLSGPQEAEKYVLHMIEDGEIYASINQKDGMVCFHDNPEKYNNPAMLHKIDQEML	not failed
AIAPDSLYDSLECLSEKIEAEGLYTTFSSDKLVRRIKRSSETEKIILSRFLRARRFNVDSAFDSFLACLKFREAENVNSVGLDEFKNPLATFPFTTTGFCTFDGEPLLYGRASALDRFKIDPAIFHRGFISFLEFLGDTFEPSTMFVIIFDFTDFSPIRNVHFGCARDMLKVMQDFYPERLSKIFLVNYPSTLYGVYKIVSPFIDENTRSKLEWIPKNSLEQLLRYVSMEAIPYSIGGMAVYPVPPLSSQ	failed
SDESDLPSAMPAVPAFGVEERNMVSGVLTLAERSIRSIMTPRTDVSWVNIDDDAATIRQQLTAAPHSFFPVCRGSLDEVVGIGRAKDLVADLITEGRVRRNRLRDPIIVHESIGILRLMDTLKRSRGQLVLVADEFGAIEGLVTPIDVFEAIAGEFPDEDELPDIVA	failed
MVIPALPKIEDQFSTSATTVAWITSAYLIVGAVASPVFGKLGDRYGKKKIYLLAIAFYSLAVLIAGFSTNIYMLIFARAIQGLGFAVFPIAIAIITDLFPRERVAWAQSILSATLALGPALGLLIGAYIVQDLGWQYAFHTAFILSIILMFISIRFIQEIPSKTKERIDYLGAVFLMLAVISLLVYLTEGPSIGWFSATQFSLILTSIISFGVFIFVERRVAEPLMKLDLFRIRNIMVANISGLIAGTAMFLMFIGLTYYAQLPKPYGLGLSIIDSGLLMAPVALTMMVVGPIVGRLINSTGPKPLLIFGSIVGIIGFLLLNAFNSTNIQVLLDTVVASVGIISLMIPLVNMVAVSLPEDQRGVGIGMNTLIRSIGSSVGPVISTVFMDTYTAWIGYLFNNQYLPIASVPSSEAFHYIYLVGICLMFINLLVALLTKNYVLKQKVKTTESVV	failed
MIKKNNLILIKLKNSMKKMIKIAFVAAFVAIAGYGVYTNQKSETLSDLTLANVEALAGGESGGYYCCSPYSYECYRIVGGGIVHGLRLPLPC	failed
KPSQEGGKGGSEKPKRPVSAMFIFSEEKRRQLQEERPELSESELTRLLARMWNDLSEKKKAKYKAREAALKAQSERK	not failed
